{"source": "patent US20160046707A1", "about": "(EISAI R AND D MANAGEMENT, published 2016)", "binders": {"B1": {"name": "mouse anti-human CCL20 monoclonal antibody 36F7C10 (antibody, V domains shown)", "VH": "QVQLQQPGAELVKPGASVKMSCKASGYTFTNYWMHWVKQRPGQGLEWIGVIDPSDSYTTYNQKFKGKATLTVDTSSSTAYMQLSSLTSEDSAVYYCTRGNYGVDYAMDYWGQGTSVTVSS", "VL": "DIQMTQSPASLSASVGETVTITCGASENIYGALNWYQRKQGKSPQLLIYGATNLADGMSSRFSGSGSGRQYSLKISSLHPDDVATYYCQNVLITPYTFGGGTKLEIK", "notes": "Mouse hybridoma antibody; also called MouseMAb; parental mouse clone 36F7C10"}, "B2": {"name": "chimeric 36F7C10 antibody (36F7C10-hFc) (antibody, V domains shown)", "VH": "B1 VH", "VL": "B1 VL", "notes": "also called chimeric 36F710; Chimeric MAb"}, "B3": {"name": "humanized anti-human CCL20 antibody 36LK3/36HC2 (antibody, human IgG1, kappa, V domains shown)", "VH": "QVQLVQSGAEVKKPGASVKVSCKASGYTFTNYWMHWVRQAPGQGLEWMGVIDPSDSYTTYAQKFQGRVTMTVDTSTSTVYMELSSLRSEDTAVYYCARGNYGVDYAMDYWGQGTLVTVSS", "VL": "DIQMTQSPSSLSASVGDRVTITCGASENIYGALNWYQRKPGKAPKLLIYGATNLADGVPSRFSGSGSGRDYTLTISSLQPEDFATYYCQNVLITPYTFGQGTKLEIKR", "notes": "expressed in HEK293 cells; also called HC2/LK3; HC2LK3"}, "B4": {"name": "humanized anti-human CCL20 antibody 36LC3/36HC2 (antibody, human IgG1, kappa, V domains shown)", "VH": "B3 VH", "VL": "B3 VL with G24R, R38Q, D70Q, T72S, Q100G", "notes": "expressed in HEK293 cells; also called HC2/LC3; HC2LC3"}}, "key": {"[1]": {"target": "T1, rhesus CCL20-secreted alkaline phosphatase (SEAP) fusion (rhesus monkey)", "T1 construct": "also called rCCL20; rhesus CCL20-SEAP; not shown: the SEAP reporter (cDNA from Clontech pSEAP-Enhancer) and its junction to CCL20", "T1 chain": "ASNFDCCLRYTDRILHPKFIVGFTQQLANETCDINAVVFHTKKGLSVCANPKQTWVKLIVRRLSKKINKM", "assay": "ELISA on CCL20-SEAP, Abs 450; x axis 'ug/ml' in 4-fold steps down from 10, taken as the antibody concentration as in FIG. 11C"}, "[2]": {"target": "T2, human CCL20-secreted alkaline phosphatase (SEAP) fusion (human, UniProt P78556 27-96)", "T2 construct": "also called hCCL20; human CCL20-SEAP; not shown: secreted alkaline phosphatase (SEAP), cDNA from pSEAP-Enhancer vector (Clontech)", "T2 sequence (P78556 27-96)": "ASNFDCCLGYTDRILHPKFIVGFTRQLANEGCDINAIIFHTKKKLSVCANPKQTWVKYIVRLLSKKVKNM", "assay": "ELISA on CCL20-SEAP, Abs 450; x axis 'ug/ml' in 4-fold steps down from 10, taken as the antibody concentration as in FIG. 11C"}, "[3]": {"target": "rat CCL20-secreted alkaline phosphatase (SEAP) fusion (rat, UniProt P97884 27-96; P05187 23-511)", "sequence (P97884 other isoform, or with tags, fused parts or gaps)": "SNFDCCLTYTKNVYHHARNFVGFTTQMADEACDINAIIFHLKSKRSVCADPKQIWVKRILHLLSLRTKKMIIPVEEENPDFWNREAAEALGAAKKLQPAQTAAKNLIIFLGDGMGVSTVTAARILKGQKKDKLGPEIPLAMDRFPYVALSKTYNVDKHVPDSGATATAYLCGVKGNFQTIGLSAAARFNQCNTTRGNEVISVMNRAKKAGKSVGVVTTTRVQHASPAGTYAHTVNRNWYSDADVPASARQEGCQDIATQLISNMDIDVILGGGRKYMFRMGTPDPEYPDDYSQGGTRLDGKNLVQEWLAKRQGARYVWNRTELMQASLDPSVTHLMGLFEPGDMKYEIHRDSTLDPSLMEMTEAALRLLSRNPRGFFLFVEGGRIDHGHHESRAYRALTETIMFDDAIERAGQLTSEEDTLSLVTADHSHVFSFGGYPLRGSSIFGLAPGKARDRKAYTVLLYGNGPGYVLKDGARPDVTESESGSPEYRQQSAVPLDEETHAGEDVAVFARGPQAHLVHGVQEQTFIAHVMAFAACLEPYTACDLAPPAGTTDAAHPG", "assay": "ELISA on CCL20-SEAP, Abs 450; x axis 'ug/ml' in 4-fold steps down from 10, taken as the antibody concentration as in FIG. 11C"}, "[4]": {"target": "T3, cynomolgus CCL20-secreted alkaline phosphatase (SEAP) fusion (cynomolgus monkey)", "T3 construct": "also called cCCL20; cynomolgus CCL20-SEAP; not shown: the SEAP reporter (cDNA from Clontech pSEAP-Enhancer) and its junction to CCL20", "T3 chain": "T1 chain with V38I", "assay": "ELISA on CCL20-SEAP, Abs 450; x axis 'ug/ml' in 4-fold steps down from 10, taken as the antibody concentration as in FIG. 11C"}, "[5]": {"target": "T4, recombinant human CXCL4 (human, UniProt P02776 32-101)", "T4 construct": "also called PF4", "T4 sequence (looked up)": "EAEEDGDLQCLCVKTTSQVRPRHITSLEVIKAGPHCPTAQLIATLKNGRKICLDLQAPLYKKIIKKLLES", "assay": "ELISA, plate-bound chemokine (1 ug/ml), antibody 10 ug/ml, OD450", "method_in_brief": "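Wells coated overnight at 4 °C with 1 μg/ml recombinant human chemokine in PBS, blocked 1 h, then incubated 1 h at room temperature with antibodies at 10 μg/ml in 0.02% Tween 20/PBS. TMB development 15–30 min, stopped with 2 M H2SO4, OD read at 450 nm.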"}, "[6]": {"target": "T1, rhesus CCL20-secreted alkaline …", "assay": "ELISA (fluorescent HRP substrate): CCL20-SEAP captured on anti-alkaline phosphatase in 5-fold dilutions from 20 nM (x axis, nM), antibody at 1 ug/ml", "description": "(§1) To test whether the chimeric and humanized antibodies can bind to mouse, cynomolgus, or rhesus macaque CCL20 orthologs, we used ELISA assays as illustrated in FIG. 15. Recombinant secreted alkaline phosphatase (SEAP)-chemokine fusion proteins were engineered as described in Example 2, expressed and purified for all of the CCL20 orthologs tested. Nunc MaxiSorb flat-bottom black plates were coated with 1 μg/ml mouse anti-placental alkaline phosphatase antibody (Pierce, cat# MA1-19354) in 50 mM sodium bicarbonate, pH 9.4, overnight at 4° C. Plates were then blocked using 1× phosphate buffered saline with Tween-20 (PBST) with 5% bovine serum albumin (BSA) for 2 hours at room temperature. 20 nM SEAP-CCL20 fusion proteins were serially diluted 5-fold in Opti-MEM medium (Invitrogen). Chimeric and humanized (HC2/LC3 and HC2/LK3) antibodies were diluted to 1 μg/ml in 1×PBST with 5% BSA, added to the plates, and incubated for 1 hr at room temperature. The plates were then washed with 1×PBST with 5% BSA three times. […] QuantaBlu fluorescent HRP substrate (Pierce cat#15169) was added for detection of bound antibody by measuring fluorescence in a Molecular Devices M5 (Excitation 325 nm/Emission 420 nm) plate reader.\n(§2) While the hamster anti-mouse CCL20 antibody 2F5-5 MAb bound mouse CCL20 with a 50% effective dose (EC₅₀) of 64 pM (data not shown), neither the chimeric nor humanized anti-human CCL20 antibodies bound detectably to mouse CCL20 or rat CCL20 under the conditions described above. By contrast, both the chimeric and humanized antibodies effectively bound to human, rhesus, and cynomolgus CCL20 (FIGS. 16A-C, 17A and B)."}, "[7]": {"target": "T2, human CCL20-secreted alkaline …", "assay": "ELISA (fluorescent HRP substrate): CCL20-SEAP captured on anti-alkaline phosphatase in 5-fold dilutions from 20 nM (x axis, nM), antibody at 1 ug/ml", "description": "as §1, §2"}, "[8]": {"target": "T3, cynomolgus CCL20-secreted alkaline …", "assay": "ELISA (fluorescent HRP substrate): CCL20-SEAP captured on anti-alkaline phosphatase in 5-fold dilutions from 20 nM (x axis, nM), antibody at 1 ug/ml", "description": "as §1, §2"}, "[9]": {"target": "T2, human CCL20-secreted alkaline …", "assay": "ELISA, serially diluted CCL20-SEAP captured by anti-alkaline phosphatase antibody, antibody at 1 µg/ml; human CCL20-SEAP", "description": "as §1, with “reader. […]” for “reader.”"}, "[10]": {"target": "T3, cynomolgus CCL20-secreted alkaline …", "assay": "ELISA, serially diluted CCL20-SEAP captured by anti-alkaline phosphatase antibody, antibody at 1 µg/ml", "description": "as §1, with “reader. […]” for “reader.”"}, "[11]": {"target": "T1, rhesus CCL20-secreted alkaline …", "assay": "ELISA, serially diluted CCL20-SEAP captured by anti-alkaline phosphatase antibody, antibody at 1 µg/ml; rhesus CCL20-SEAP", "description": "as §1, with “reader. […]” for “reader.”"}}, "note": "Where a chain is given by its changes, count along the chain named."}
{"binder": "B1", "values": [{"measurement": "EC50 (read off the curve)", "setting": "[1]", "result": "~0.01", "unit": "µg/mL"}, {"measurement": "EC50 (read off the curve)", "setting": "[2]", "result": "~0.009", "unit": "µg/mL"}, {"measurement": "binding result", "setting": "[3]", "result": "no binding (tested: 10 ug/ml)"}, {"measurement": "EC50 (read off the curve)", "setting": "[4]", "result": "~0.009", "unit": "µg/mL"}, {"measurement": "binding result", "setting": "[5]", "result": "no binding (tested: 10 ug/ml)"}]}
{"binder": "B2", "values": [{"measurement": "EC50 (read off the curve)", "setting": "[1]", "result": "~0.03", "unit": "µg/mL"}, {"measurement": "EC50 (read off the curve)", "setting": "[2]", "result": "~0.03", "unit": "µg/mL"}, {"measurement": "binding result", "setting": "[3]", "result": "no binding (tested: 10 ug/ml)"}, {"measurement": "EC50 (read off the curve)", "setting": "[4]", "result": "~0.03", "unit": "µg/mL"}, {"measurement": "EC50", "setting": "[6]", "result": 0.0498, "unit": "nM"}, {"measurement": "EC50", "setting": "[7]", "result": 0.0336, "unit": "nM"}, {"measurement": "EC50", "setting": "[8]", "result": 0.101, "unit": "nM"}]}
{"binder": "B3", "values": [{"measurement": "EC50", "setting": "[6]", "result": 0.0629, "unit": "nM"}, {"measurement": "EC50", "setting": "[7]", "result": 0.0459, "unit": "nM"}, {"measurement": "EC50", "setting": "[8]", "result": 0.162, "unit": "nM"}]}
{"binder": "B4", "values": [{"measurement": "EC50", "setting": "[9]", "result": 0.062, "unit": "nM"}, {"measurement": "fold difference of EC50 versus human CCL20", "setting": "[10]", "result": 5.4, "unit": "fold"}, {"measurement": "EC50", "setting": "[11]", "result": 0.101, "unit": "nM"}]}
